Measurements as given in patent US20080044413A1 (published 2008).

Assays:
[1] = molecular target: T1, Human EphA2-Fc fusion protein (human, UniProt P29317 24-537); test: method not stated in this paragraph (framework shuffling)
T1 construct: extracellular domain; Expressed in HEK 293 cells; Biotinylated in the capture ELISAs; also called soluble EphA2 Fc fusion protein; not shown: Fc portion of a human IgG1

[2] = molecular target: T1, Human EphA2-Fc fusion protein; test: SPR (Biacore 3000), soluble IgG on immobilized EphA2-Fc
[3] = molecular target: T1, Human EphA2-Fc fusion protein; test: method and format of the clone not stated in this paragraph (framework shuffling)
cynomolgus EphA2 = molecular target: T2, cynomolgus EphA2 (cynomolgus, UniProt Q1KL86 24-976); test: flow cytometry on cynomolgus EphA2 transfected CHO cells, antibody 10 µg/ml, AlexaFluor 488 anti-mouse or anti-human IgG (H+L)
T2 construct: whole, on cells; also called cynomolgus EphA2 expressed on transfected CHO cells
Method: Subconfluent monolayers of SW480 colon carcinoma or cynomolgus EphA2 transfected CHO cells were quickly trypsinized, washed, counted, plated into 96-well round bottom plates, and stained with 10 μg/ml of a negative control antibody (R347), the anti-human EphA2 murine antibody, EA2 (Coffman 2003), or humanized antibodies, 3F2 and 4H5. Cells were resuspended in AlexaFluor 488 anti-mouse or anti-human IgG H+L (Invitrogen) and then analyzed by flow cytometry using a FACSCalibur (Becton Dickinson).

human EphA2 [4] = molecular target: T3, human EphA2 (human, UniProt P29317 24-976); test: cell-based or functional assay
human EphA2 [5] = molecular target: T3, human EphA2; test: cell-based or functional assay; remark: listed apart in the source
human EphA2 [6] = molecular target: T3, human EphA2; test: cell-based or functional assay; remark: listed apart in the source
human EphA2 [7] = molecular target: T3, human EphA2; test: cell-based or functional assay; remark: listed apart in the source
human EphA2 [8] = molecular target: T3, human EphA2; test: cell-based or functional assay; remark: listed apart in the source
human EphA2 [9] = molecular target: T3, human EphA2; test: cell-based or functional assay; remark: listed apart in the source
[10] = molecular target: T1, Human EphA2-Fc fusion protein; test: SPR, immobilized EphA2-Fc surface; (MT)
Description: (§1) The formation and dissociation of BiTE/EphA2 complexes was monitored by surface plasmon resonance using a Biacore 3000 system. For this purpose, EphA2 Fc fusion protein was immobilized on a sensor chip with a CM5 carboxymethylated dextran matrix. Optimal immobilization conditions were identified through pH scouting (sodium acetate pH 4.0 to pH 5.5; disodium tetraborate pH 8.5). The optimal pH value was pH 4.0. After immobilization of 1000 RU to flow cell 2, 5,000 RU to flow cell 3 and 400 RU to flow cell 4, excess reactive groups were deactivated by ethanolamine. The affinity of the anti-EphA2 BiTE to immobilized EphA2 was determined by injecting different concentrations of the analyte deimmunized anti-CD3×EA2 VHVL diluted in HBS-EP buffer. To regenerate the surface, REGEN buffer (50 mM NaOH; 20 mM MES; 1 mM NaCl pH 6.4) was used.

[11] = molecular target: T1, Human EphA2-Fc fusion protein; test: SPR, immobilized EphA2-Fc surface; (MedI)
soluble CD3εγ = molecular target: T4, soluble CD3εγ (human, UniProt P07766 23-118; P09693 23-103); test: SPR, immobilized soluble CD3εγ surface; estimate, biphasic association
T4 construct: Amine-coupled to a CM5 chip

[12] = molecular target: T1, Human EphA2-Fc fusion protein; test: SPR (Biacore 3000), EphA2 Fc fusion protein immobilized on CM5, BiTE as analyte
Description: as §1

T2 sequence (Q1KL86 24-976): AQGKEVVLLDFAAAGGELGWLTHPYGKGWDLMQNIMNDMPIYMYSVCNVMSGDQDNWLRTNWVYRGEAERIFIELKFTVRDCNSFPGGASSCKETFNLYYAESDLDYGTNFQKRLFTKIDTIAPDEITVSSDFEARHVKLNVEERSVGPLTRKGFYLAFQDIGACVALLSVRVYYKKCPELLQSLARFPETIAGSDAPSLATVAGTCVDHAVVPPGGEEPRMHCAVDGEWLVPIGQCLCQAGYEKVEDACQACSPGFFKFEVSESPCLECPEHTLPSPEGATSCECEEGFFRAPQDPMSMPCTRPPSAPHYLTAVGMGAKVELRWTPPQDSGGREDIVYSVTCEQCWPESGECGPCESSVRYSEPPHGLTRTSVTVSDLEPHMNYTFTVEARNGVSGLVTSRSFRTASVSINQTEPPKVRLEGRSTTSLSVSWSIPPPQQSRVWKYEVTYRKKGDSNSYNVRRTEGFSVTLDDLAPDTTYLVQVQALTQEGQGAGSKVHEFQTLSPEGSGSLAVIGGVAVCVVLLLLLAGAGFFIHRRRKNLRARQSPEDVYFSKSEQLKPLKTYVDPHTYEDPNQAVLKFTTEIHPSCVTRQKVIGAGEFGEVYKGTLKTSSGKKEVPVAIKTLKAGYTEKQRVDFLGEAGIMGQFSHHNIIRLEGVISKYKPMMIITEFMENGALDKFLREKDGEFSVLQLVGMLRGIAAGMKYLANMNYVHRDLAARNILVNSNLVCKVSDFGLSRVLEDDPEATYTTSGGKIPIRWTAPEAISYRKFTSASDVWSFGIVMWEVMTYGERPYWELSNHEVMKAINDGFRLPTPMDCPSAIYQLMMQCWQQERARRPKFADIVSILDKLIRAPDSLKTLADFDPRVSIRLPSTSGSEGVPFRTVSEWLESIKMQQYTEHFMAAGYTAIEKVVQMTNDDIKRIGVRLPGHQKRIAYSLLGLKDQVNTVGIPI

B1: Humanized 2G6 (antibody, human IgG1, V domains shown)
VH: EVQLVESGGGVVRPGGSLRLSCAASGFTVSDYSMNWVRQAPGKGLEWIGFIRNKANDYTTEYSASVKGRFTISRDDSKNTLYLQMNSLKTEDTAVYYCTTYPRYHAMDSWGQGTMVTVSS
VL: AIQLTQSPSSLSASVGDRVTITCRASQSISNNLHWYLQKPGQSPQLLIYYVFQSISGVPSRFSGSGSGTDFTLTISSLQPEDFATYYCQQSNSWPLTFGGGTKLEIK
notes: Framework-shuffled humanized B233; human IgG1 with human kappa chain in the Biacore analysis
- fold loss of affinity compared with chimaeric mAb B233 [1]: ~10 fold
- Kd [2]: 3 nM
- koff [2]: 0.00019 s⁻¹
- kon [2]: 64000 M⁻¹ s⁻¹

B2: humanized anti-human EphA2 mAb 4H5 (antibody, V domains shown)
VH: QVQLLESGGGLVQPGGSLRLSCAASGFTFSSYTMSWVRQAPGQALEWMGTISSGGTYTYYPDSVKGRFTISRDNAKNSLYLQMNSLRAEDTAVYYCAREAIFTYWGRGTLVTVSS
VL: DIQLTQSPSSLSASVGDRVTITCKASQDINNYLSWYQQKPGQAPRLLIYRANRLVDGVPDRFSGSGYGTDFTLTINNIESEDAAYYFCLKYDVFPYTFGQGTKVEIK
notes: Humanized from EA2 by framework shuffling; detected with anti-human IgG; also called humanized clone 4H5
- fold increase of affinity compared with chimaeric Fab EA2 [3]: ~20 fold
- binding result (cynomolgus EphA2): binds

B3: EphA2-BiTE deimmunized anti-CD3 (VH/VL) × EA2 (VH/VL) (bispecific antibody)
chain: DVQLVQSGAEVKKPGASVKVSCKASGYTFTRYTMHWVRQAPGQGLEWIGYINPSRGYTNYADSVKGRFTITTDKSTSTAYMELSSLRSEDTATYYCARYYDDHYCLDYWGQGTTVTVSSGEGTSTGSGGSGGSGGADDIVLTQSPATLSLSPGERATLSCRASQSVSYMNWYQQKPGKAPKRWIYDTSKVASGVPARFSGSGSGTDYSLTINSLEAEDAATYYCQQWSSNPLTFGGGTKVEIKSGGGGSDVKLVESGGGLVKPGGSLKLSCAASGFTFSSYTMSWVRQTPEKRLEWVATISSGGTYTYYPDSVKGRFTISRDNAKNTLYLQMSSLKSEDTAMYYCTREAIFTYWGQGTLVTVSSGGGGSGGGGSGGGGSDIKMTQSPSSMYASLGERVTITCKASQDINNYLSWFQQKPGKSPKTLIYRANRLVDGVPSRFSGSGSGQDYSLTISSLEYEDMGIYYCLKYDEFPYTFGGGTKLEIKHHHHHH
notes: C-terminal His tag; Purified monomer from CHO cells; also called deimmunized anti-CD3×EA2 (VH/VL); deimmunized anti-CD3-EA2(VH/VL)
- EC50 of tumor cell killing, ACHN cells (human EphA2 [4]): 3 ng/mL
- EC50 of tumor cell killing, Caki 2 cells (human EphA2 [4]): 30 ng/mL
- EC50 of tumor cell killing, DU145 cells (human EphA2 [4]): 0.8 ng/mL
- EC50 of tumor cell killing, PC3 cells (human EphA2 [4]): 6 ng/mL
- EC50 of tumor cell killing, SW480 cells (human EphA2 [4]): 6 ng/mL
- median EC50 of tumor cell killing, SW480 targets, 49 donors (human EphA2 [4]): 24 ng/mL
- EC50 of redirected lysis, 51Cr release, A549 (human EphA2 [5]): 123 ng/mL
- EC50 of redirected lysis, 51Cr release, A549, second experiment (human EphA2 [5]): 24.8 ng/mL
- EC50 of redirected lysis, 51Cr release, MDA MB231 (human EphA2 [5]): 5.8 ng/mL
- EC50 of redirected lysis, 51Cr release, MDA MB231, second experiment (human EphA2 [5]): 8.6 ng/mL
- EC50 of redirected lysis, A549, PBMC effectors, batch 040507PMa02 (human EphA2 [6]): 32.8 ng/mL
- EC50 of redirected lysis, A549, PBMC effectors, batch 040907USy02 (human EphA2 [6]): 10.2 ng/mL
- EC50 of redirected lysis, A549, stimulated CD8 T-cells, batch 040507PMa02 (human EphA2 [6]): 3.3 ng/mL
- EC50 of redirected lysis, A549, stimulated CD8 T-cells, batch 040907USy02 (human EphA2 [6]): 1.6 ng/mL
- EC50 of redirected lysis, MDA MB 231, PBMC effectors, batch 040507PMa02 (human EphA2 [6]): 7.6 ng/mL
- EC50 of redirected lysis, MDA MB 231, PBMC effectors, batch 040907USy02 (human EphA2 [6]): 3.2 ng/mL
- EC50 of redirected lysis, MDA MB 231, stimulated CD8 T-cells, batch 040507PMa02 (human EphA2 [6]): 0.7 ng/mL
- EC50 of redirected lysis, MDA MB 231, stimulated CD8 T-cells, batch 040907USy02 (human EphA2 [6]): 0.5 ng/mL
- EC50 of redirected lysis, A549, NK cell-depleted PBMC of Donor #1 (human EphA2 [7]): 20.9 ng/mL
- EC50 of redirected lysis, A549, NK cell-depleted PBMC of Donor #2 (human EphA2 [7]): 22.6 ng/mL
- EC50 of redirected lysis, A549, NK cell-depleted PBMC of Donor #3 (human EphA2 [7]): 24.8 ng/mL
- EC50 of redirected lysis, A549, NK cell-depleted PBMC of Donor #4 (human EphA2 [7]): 28.5 ng/mL
- EC50 of redirected lysis, A549, NK cell-depleted PBMC of Donor #6 (human EphA2 [7]): 32.8 ng/mL
- EC50 of redirected lysis, A549, NK cell-depleted PBMC of Donor #7 (human EphA2 [7]): 6.6 ng/mL
- EC50 of redirected lysis, MDA-MB 231, NK cell-depleted PBMC of Donor #1 (human EphA2 [7]): 15.4 ng/mL
- EC50 of redirected lysis, MDA-MB 231, NK cell-depleted PBMC of Donor #2 (human EphA2 [7]): 5.8 ng/mL
- EC50 of redirected lysis, MDA-MB 231, NK cell-depleted PBMC of Donor #3 (human EphA2 [7]): 8.6 ng/mL
- EC50 of redirected lysis, MDA-MB 231, NK cell-depleted PBMC of Donor #4 (human EphA2 [7]): 23.9 ng/mL
- EC50 of redirected lysis, MDA-MB 231, NK cell-depleted PBMC of Donor #5 (human EphA2 [7]): 1.9 ng/mL
- EC50 of redirected lysis, MDA-MB 231, NK cell-depleted PBMC of Donor #6 (human EphA2 [7]): 7.6 ng/mL
- EC50 of redirected lysis, MDA-MB 231, NK cell-depleted PBMC of Donor #7 (human EphA2 [7]): 3.2 ng/mL
- EC 50 of lysis, 51Cr release, B16 F10 EphA2 transfected cells, stimulated human CD8 T-cells, E:T 10:1, 18 h (human EphA2 [8]): 21.7 ng/mL
- EC50 of cytotoxic activity, 51Cr release, MDA-MB231 target cells, NK cell-depleted PBMC, E:T 10:1, 18 h; BiTE diluted directly before assay in medium (control) (human EphA2 [9]): 1.9 ng/mL
- EC50 of cytotoxic activity, 51Cr release, MDA-MB231 target cells, NK cell-depleted PBMC, E:T 10:1, 18 h; BiTE diluted directly before assay in plasma (control) (human EphA2 [9]): 2 ng/mL
- EC50 of cytotoxic activity, 51Cr release, MDA-MB231 target cells, NK cell-depleted PBMC, E:T 10:1, 18 h; BiTE kept 24 h in plasma at 4° C. before the assay (human EphA2 [9]): 2.2 ng/mL
- EC50 of cytotoxic activity, 51Cr release, MDA-MB231 target cells, NK cell-depleted PBMC, E:T 10:1, 18 h; BiTE kept 24 h in plasma at 37° C. before the assay (human EphA2 [9]): 3.1 ng/mL
- Kd [10]: 45 nM
- Kd [11]: 113 nM
- Kd (soluble CD3εγ): 400 to 500 nM
- Kd [12]: 44.6 nM
- koff [12]: 0.0426 s⁻¹
- kon [12]: 956000 M⁻¹ s⁻¹
